# Columns and labels:
# Assay in all cases: cell-based or functional assay
# [1] = molecular target: IL-18 polypeptide of SEQ ID NO: 9 (E6K, C38A, K53A, C68A, D98C) (human) (UniProt Q14116)
# [2] = molecular target: IL-18 polypeptide C143 (human) (UniProt Q14116)
# [3] = molecular target: IL-18 polypeptide of SEQ ID NO: 41 (K53A, S55A) (human) (UniProt Q14116)
# [4] = molecular target: IL-18 polypeptide of SEQ ID NO: 38 (E06K) (human) (UniProt Q14116)
# [5] = molecular target: IL-18 polypeptide C163 (human) (UniProt Q14116)
# [6] = molecular target: IL-18 polypeptide C167 (human) (UniProt Q14116)
# [7] = molecular target: Composition A (LZM-009 conjugated to IL-18 polypeptide of SEQ ID NO: 30) (human) (UniProt Q14116)
# [8] = molecular target: IL-18 polypeptide C162 (human) (UniProt Q14116)
# [9] = molecular target: IL-18 polypeptide of SEQ ID NO: 52 (E06K, T63A) (human) (UniProt Q14116)
# [10] = molecular target: Composition B (Atezolizumab/Tecentriq conjugated to IL-18 polypeptide of SEQ ID NO: 30) (human) [IgG part: P0DOX5]
# [11] = molecular target: IL-18 polypeptide of SEQ ID NO: 59 (E6K, C38A, K53A) (human) (UniProt Q14116)
# [12] = molecular target: IL-18 polypeptide of SEQ ID NO: 30 (E6K, V11I, C38A, K53A, T63A, C76A, C127A) (human) (UniProt Q14116)
# [13] = molecular target: IL-18 polypeptide C150 (human) (UniProt Q14116)
# [14] = molecular target: IL-18 polypeptide of SEQ ID NO: 43 (E06K, K53A, S55A, Y01G) (human) (UniProt Q14116)
# [15] = molecular target: IL-18 polypeptide C165 (human) (UniProt Q14116)
# [16] = molecular target: IL-18 polypeptide of SEQ ID NO: 35 (Y01G, F02A, E06K, M51G, K53A, D54A, S55A, T63A) (human) (UniProt Q14116)
# [17] = molecular target: IL-18 polypeptide of SEQ ID NO: 5 (E6K, V11I, C38A, K53A, T63A, C68A, C76A, M86C, C127A) (human) (UniProt Q14116)
# [18] = molecular target: IL-18 polypeptide C151 (human) (UniProt Q14116)
# [19] = molecular target: IL-18 polypeptide of SEQ ID NO: 50 (E06K, K53A, T63A) (human) (UniProt Q14116)
# [20] = molecular target: IL-18 polypeptide C148 (human) (UniProt Q14116)
# [21] = molecular target: IL-18 polypeptide of SEQ ID NO: 34 (E06K, K53A, S55A) (human) (UniProt Q14116)
# [22] = molecular target: IL-18 polypeptide C156 (human) (UniProt Q14116)
# [23] = molecular target: IL-18 polypeptide of SEQ ID NO: 53 (K53A, T63A) (human) (UniProt Q14116)
# [24] = molecular target: IL-18 polypeptide C166 (human) (UniProt Q14116)
# [25] = molecular target: IL-18 polypeptide of SEQ ID NO: 40 (E06K, S55A) (human) (UniProt Q14116)
# [26] = molecular target: Composition C (Trastuzumab/Herceptin conjugated to IL-18 polypeptide of SEQ ID NO: 30) (human)
# [27] = molecular target: IL-18 polypeptide C168 (human) (UniProt Q14116)
# [28] = molecular target: IL-18 polypeptide of SEQ ID NO: 48 (C38S, C68S, C76S, C127S, K70C) (human) (UniProt Q14116)
# [29] = molecular target: native IL-18 wild-type (SEQ ID NO: 1) (human) (UniProt Q14116)
# [30] = molecular target: IL-18 polypeptide of SEQ ID NO: 36 (K53A) (human) (UniProt Q14116)
# [31] = molecular target: IL-18 polypeptide C164 (human) (UniProt Q14116)
# [32] = molecular target: IL-18 polypeptide of SEQ ID NO: 42 (E06K, K53A, S55A, T63A) (human) (UniProt Q14116)
# [33] = molecular target: IL-18 polypeptide C149 (human) (UniProt Q14116)
# [34] = molecular target: IL-18 polypeptide of SEQ ID NO: 39 (E06K, K53A) (human) (UniProt Q14116)
# [35] = molecular target: IL-18 polypeptide of SEQ ID NO: 57 (E6K, C38S, K53A) (human) (UniProt Q14116)
# [36] = molecular target: IL-18 polypeptide C157 (human) (UniProt Q14116)
# [37] = molecular target: IL-18 polypeptide C161 (human) (UniProt Q14116)
# [38] = molecular target: IL-18 polypeptide of SEQ ID NO: 51 (T63A) (human) (UniProt Q14116)
# [39] = molecular target: IL-18 polypeptide C152 (human) (UniProt Q14116)
# [40] = molecular target: IL-18 polypeptide C145 (human) (UniProt Q14116)
substance,measurement,setting,value
"Fc fused human IL-18 binding protein isoform a (IL-18BPa; R&D systems, Cat #119-BP) (from UniProt O95998 31-194) (Fc fusion)","IC50 of IL-18BP on IFNγ secretion, NK92 cells",[1],961 nM
same,"IC50 of IL-18BP on IFNγ secretion, NK92 cells",[2],1.62 nM
same,"IC50 of IL-18BP on IFNγ secretion, NK92 cells",[3],37.3 nM
same,"IC50 of IL-18BP on IFNγ secretion, NK92 cells",[4],7.79 nM
same,"IC50 of IL-18BP on IFNγ secretion, NK92 cells",[5],0.823 nM
same,"IC50 of IL-18BP on IFNγ secretion, NK92 cells",[6],0.809 nM
same,IC50 of IL-18BPa on IFNγ secretion by NK92 cells,[7],6.87 nM
same,"IC50 of IL-18BP on IFNγ secretion, NK92 cells",[8],7.29 nM
same,"IC50 of IL-18BP on IFNγ secretion, NK92 cells",[9],47.1 nM
same,IC50 of IL-18BPa on IFNγ secretion by NK92 cells,[10],> 1000 nM
same,"IC50 of IL-18BP on IFNγ secretion, NK92 cells",[11],654 nM
same,IC50 of IL-18BPa on IFNγ secretion by NK92 cells,[12],488 nM
same,"IC50 of IL-18BP on IFNγ secretion, NK92 cells",[13],21.3 nM
same,"IC50 of IL-18BP on IFNγ secretion, NK92 cells",[14],27.8 nM
same,"IC50 of IL-18BP on IFNγ secretion, NK92 cells",[15],0.885 nM
same,"IC50 of IL-18BP on IFNγ secretion, NK92 cells",[16],> 55 nM
same,"IC50 of IL-18BP on IFNγ secretion, NK92 cells",[17],62.4 nM
same,"IC50 of IL-18BP on IFNγ secretion, NK92 cells",[18],3.62 nM
same,"IC50 of IL-18BP on IFNγ secretion, NK92 cells",[19],> 1000 nM
same,"IC50 of IL-18BP on IFNγ secretion, NK92 cells",[20],5.05 nM
same,"IC50 of IL-18BP on IFNγ secretion, NK92 cells",[21],229 nM
same,"IC50 of IL-18BP on IFNγ secretion, NK92 cells",[22],0.681 nM
same,"IC50 of IL-18BP on IFNγ secretion, NK92 cells",[23],18.2 nM
same,"IC50 of IL-18BP on IFNγ secretion, NK92 cells",[24],0.44 nM
same,"IC50 of IL-18BP on IFNγ secretion, NK92 cells",[25],15 nM
same,IC50 of IL-18BPa on IFNγ secretion by NK92 cells,[26],21.4 nM
same,"IC50 of IL-18BP on IFNγ secretion, NK92 cells",[27],0.176 nM
same,"IC50 of IL-18BP on IFNγ secretion, NK92 cells",[28],0.114 nM
same,"IC50 of IL-18BP on IFNγ secretion, NK92 cells",[29],1.47 nM
same,IC50 of IL-18BPa on IFNγ secretion by NK92 cells,[29],0.781 nM
same,"IC50 of IL-18BP on IFNγ secretion, NK92 cells",[30],27.3 nM
same,"IC50 of IL-18BP on IFNγ secretion, NK92 cells",[31],0.456 nM
same,"IC50 of IL-18BP on IFNγ secretion, NK92 cells",[32],1060 nM
same,"IC50 of IL-18BP on IFNγ secretion, NK92 cells",[33],1.17 nM
same,"IC50 of IL-18BP on IFNγ secretion, NK92 cells",[34],> 703 nM
same,"IC50 of IL-18BP on IFNγ secretion, NK92 cells",[35],146 nM
same,"IC50 of IL-18BP on IFNγ secretion, NK92 cells",[36],6.08 nM
same,"IC50 of IL-18BP on IFNγ secretion, NK92 cells",[37],1.07 nM
same,"IC50 of IL-18BP on IFNγ secretion, NK92 cells",[38],0.239 nM
same,"IC50 of IL-18BP on IFNγ secretion, NK92 cells",[39],7.85 nM
same,"IC50 of IL-18BP on IFNγ secretion, NK92 cells",[40],10.2 nM

# Reference: patent publication US12383631
